Data on four molecules can be found in US20240092913A1 (HANALL BIOPHARMA, published 2024).

For test [1], the target named is T1, water-soluble hFcRn (human, UniProt P55899 24-297; P61769 21-119, limits assumed).
T1 construct: also called shFcRn; human FcRn
As to the kind of experiment: SPR (Proteon XPR36, GLC chip), shFcRn immobilised, antibody as analyte, pH 7.4, 1:1 Langmuir, mean of six runs. The protocol:
(§1) In kinetic analysis, a 1:1 Langmuir binding model was used, the analysis was repeated six times at each of pH 6.0 and pH 7.4, and the mean KD value was calculated. […], the chip was activated under the conditions of EDAC/NHS 0.5×, 30 μL/min and 300 sec. For immobilization, shFcRn was diluted in acetate buffer (pH 5.5) to concentrations of 2 μg/mL and 250 μL, and the dilution was allowed to flow on the chip at a rate of 30 μL/min. When an immobilization level of 200-300 RU was reached, the reaction was stopped. Then, deactivation was performed using ethanolamine at a rate of 30 μL/min for 300 sec. […] Sample dilution was performed using 1× PBST (pH 7.4) or 1× PBST (pH 6.0) at each pH. For sample analysis, association was performed at 50 μL/min for 200 sec, and the dissociation step was performed at 50 μL/min for 600 sec, after which regeneration was performed using glycine buffer (pH 2.5) at 100 μL/min for 18 sec. The kinetic analysis of each sample was repeated six times, and then the mean antigen binding affinity (KD) was measured.

The target of test [2] is T1, water-soluble hFcRn. Kind of test: SPR (Proteon XPR36, GLC chip), shFcRn immobilised, antibody as analyte, pH 6.0, 1:1 Langmuir, mean of six runs. The protocol: as §1
For test [3], the target named is T2, human FcRn on human FcRn-expressing stable HEK293 cells (human, UniProt P55899 24-365; P61769 21-119).
T2 construct: also called hFcRn-expressing HEK293 cells; human FcRn-overexpressing HEK293 cells
Kind of test: FACS on human FcRn-expressing stable HEK293 cells, pH 7.4, 0.11-250 nM antibody, 4 parameter logistic regression of MFI. The protocol:
The plate was mounted in a rotator at 4° C. and rotated at an angle of 15° and 10 rpm for 90 minutes. […] The FACS measurement was performed under the following conditions: FS 108 volts, SS 426 volts, FL1 324 volts, FL2 300 volts. These cells were analyzed by FACS using BD FACSDiva™ v6.1.3 software (BD Bioscience).

In test [4] the target is T2, human FcRn on human FcRn-expressing …. Kind of test: FACS competition on human FcRn-overexpressing HEK293 cells, pH 6.0, blocking of Alexa488-hIgG1, antibody 0.01-200 nM, 4-parameter logistic regression. The protocol:
Each antibody sample was diluted to 400 nM, and then diluted by 4-fold serial dilution in a 96-well v-bottom plate. 50 μL of the sample diluted to a final concentration of 200 nM to 0.01 nM was added to each well. […] Finally, 40 μL of cells diluted to a cell concentration of 2.5×10⁶ cells/mL were added to each well and suspended. The plate was mounted in a rotator at 4° C. and rotated at an angle of 15° and 10 rpm for 90 minutes. After completion of the reaction, the plate was taken out of the rotator, and centrifuged at 2000 rpm for 10 minutes to remove the supernatant. 100 μL of reaction buffer was added to each well to dissolve the cell pellets, and the plate was transferred into a blue test tube. Then, 200 μL of reaction buffer was added to each well, and measurement was performed in FACS. The FACS measurement was performed under the following conditions: FS 108 volts, SS 426 volts, FL1 324 volts, FL2 300 volts. These cells were analyzed by FACS using BD FACSDiva™ v6.1.3 software (BD Bioscience). The results were expressed as mean fluorescence intensity (MFI). The MFI of the test group was processed after subtracting the measured MFI value of the cells alone (background signal).

T1 sequence (P55899 24-297 limits assumed, chain 1 of 2): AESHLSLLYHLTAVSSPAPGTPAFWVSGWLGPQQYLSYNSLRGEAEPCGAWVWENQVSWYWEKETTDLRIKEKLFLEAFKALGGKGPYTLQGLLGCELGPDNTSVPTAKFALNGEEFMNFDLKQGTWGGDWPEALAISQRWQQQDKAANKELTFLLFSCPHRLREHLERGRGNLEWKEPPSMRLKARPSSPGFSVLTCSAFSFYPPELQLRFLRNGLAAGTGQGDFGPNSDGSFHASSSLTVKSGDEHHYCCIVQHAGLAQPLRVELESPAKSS
T1 sequence (P61769 21-119 limits assumed, chain 2 of 2): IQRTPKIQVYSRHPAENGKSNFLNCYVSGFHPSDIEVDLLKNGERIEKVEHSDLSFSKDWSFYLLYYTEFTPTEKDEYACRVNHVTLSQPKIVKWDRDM
T2 sequence (P55899 24-365 limits assumed, chain 1 of 2): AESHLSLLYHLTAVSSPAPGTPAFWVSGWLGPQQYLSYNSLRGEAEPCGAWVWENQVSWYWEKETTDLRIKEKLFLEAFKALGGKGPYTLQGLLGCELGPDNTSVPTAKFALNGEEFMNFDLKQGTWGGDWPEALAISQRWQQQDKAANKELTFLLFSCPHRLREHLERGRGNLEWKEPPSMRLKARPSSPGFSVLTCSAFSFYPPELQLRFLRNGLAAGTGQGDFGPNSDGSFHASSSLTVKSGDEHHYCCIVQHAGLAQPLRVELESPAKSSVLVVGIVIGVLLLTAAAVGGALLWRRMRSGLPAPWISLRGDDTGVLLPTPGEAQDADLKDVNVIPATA
T2 sequence (P61769 21-119 limits assumed, chain 2 of 2): as the sequence (P61769 21-119 limits assumed, chain 2 of 2) above

B1: HL161D antibody (antibody, human IgG1, V domains shown)
VH: QLQLQESGPGLVKPSETLSLTCTVSGGSISSSSYYWGWIRQPPGKGLEWIGNIYYSGSTYYNPSLMSRVTISVDTSKNQFSLKLSSVTAADTAVYYCARQLSYNWNDRLFDYWGQGTLVTVSS
VL: SYELTQPLSVSVALGQTARITCGGNNIGSKNVHWYQQKPGQAPVLVIYRDSNRPSGIPERFSGSNSGNTATLTISRAQAGDEADYYCQVWDSSTVVFGGGTKLTVLGQPKAAPSVTL
notes: the VL entry runs a few residues into the constant region
In general, Kd refers to the equilibrium constant for the complex coming apart. A higher Kd goes with weaker binding. In general, koff refers to the rate constant with which the complex falls apart. The term kon denotes the rate constant with which the complex forms. As for B1, in the test with water-soluble hFcRn [1], the equilibrium dissociation constant (Kd) came out at 1.78 nM, the off-rate constant (koff) was 0.00124 s⁻¹ and the kon is 699000 M⁻¹ s⁻¹. In the test with water-soluble hFcRn [2], this molecule had a Kd of 1.43 nM, a koff of 0.00138 s⁻¹ and an on-rate (kon) of 970000 M⁻¹ s⁻¹.

B2: HL161A antibody (antibody, human IgG1, V domains shown)
VH: EVQLLESGGGLVQPGGSLRLSCAASEFTFGSCVMTWVRQAPGKGLEWVSVISGSGGSTYYADSVKGRFTISRDNSKNTLYLQMNSLRAEDTAVYYCAKTPWWLRSPFFDYWGQGTLVTVSS
VL: SYVLTQPPSVSVAPGQTARITCGGNNIGSTSVHWYQQKPGQAPVLVVHDDSDRPSGIPERFSGSNSGNTATLTISRVEAGDEADYYCQVRDSSSDHVIFGGGTKLTVLGQPKAAPSVTL
Broadly, the EC50 is the midpoint of the concentration-response curve. Low values mean a more potent agent, high ones a less potent agent. A word on the IC50: it is the point on the concentration scale where inhibition reaches its midpoint. Regarding B2, in the test with water-soluble hFcRn [1], binding was characterised by a dissociation constant (Kd) of 0.247 nM, the koff was found to be 0.000327 s⁻¹ and the kon came out at 1.32e+06 M⁻¹ s⁻¹. Moreover, in test [3], the half-maximal effective concentration (EC50) stood at 2.46 nM. In addition, the IC50 in test [4] was found to be 0.92 nM. In the test with water-soluble hFcRn [2], this molecule returned a Kd of 0.18 nM, a koff of 0.000326 s⁻¹ and a kon of 1.81e+06 M⁻¹ s⁻¹.

B3: HL161B antibody (antibody, V domains shown)
VH: QLLLQESGPGLVKPSETLSLTCTVSGGSLSSSFSYWVWIRQPPGKGLEWIGTIYYSGNTYYNPSLKSRLTISVDTSKNHFSLNLSSVTAADTAVYYCARRAGILTGYLDSWGQGTLVTVSS
VL: SYVLTQSPSVSVAPGQTARITCGGNNIGSKSVHWYQQKPGQAPVLVVYDDSDRPSGIPERFSASNSGNTATLTISRVEAGDEADYYCQVWDSSSDHVVFGGGTKLTVLGQPKAAPSVTL
notes: as for B1
Take B3: in the test with water-soluble hFcRn [1], binding was put at a Kd of 1.76 nM, the off-rate constant (koff) is 0.00125 s⁻¹ and the on-rate constant (kon) was found to be 710000 M⁻¹ s⁻¹. The molecule also yielded an EC50 in test [3] of 1.2 nM. Moreover, the IC50 in test [4] worked out at 2.24 nM. In the test with water-soluble hFcRn [2], this molecule gave a Kd of 0.807 nM, a koff of 0.000735 s⁻¹ and a kon of 912000 M⁻¹ s⁻¹.

B4: HL161C antibody (antibody, human IgG1, V domains shown)
VH: QVQLVQSGAEVKKPGASVKVSCKASGYTFTGCYMHWVRQAPGQGLEWMGRINPNSGGTNYAQKFQGRVTMTRDTSISTAYMDLSRLRSDDTAVYYCARDYSGWSFDYWGQGTLVTVSS
VL: DIQMTQSPSSLSASVGDRVTITCRASQGISNYLAWFQQKPGKAPKSLIYAASSLQSGVPSKFSGSGSGTDFTLTISSLQSEDFATYYCQQYDSYPPTFGGGTKVEIKRTVAAPSVFI
In the test with water-soluble hFcRn [1], B4 came in with a Kd of 0.232 nM, a koff of 0.000316 s⁻¹ and an on-rate constant (kon) of 1.36e+06 M⁻¹ s⁻¹. In the test with water-soluble hFcRn [2], this molecule registered a Kd of 0.191 nM, a koff of 0.000332 s⁻¹ and a kon of 1.74e+06 M⁻¹ s⁻¹.
